# In article PMC8079656, “The msaABCR Operon Regulates Persister Formation by Modulating Energy Metabolism in Staphylococcus aureus”:
# T1: MsaB-His (Staphylococcus aureus USA300 LAC, UniProt Q2FH36 1-66)
# T1 sequence: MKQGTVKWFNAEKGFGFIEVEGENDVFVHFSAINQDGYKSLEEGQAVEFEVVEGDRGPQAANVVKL
# B1: ndh2 ssDNA probe (ndh2_EMSA) (ssDNA)
# DNA: GTCTTTTTTGTGAACATCACAGGTTTTTACATAATTTAAAAGACTTAAATAACAAAATGATGATAAACTAGTATA
# B2: ndh2 dsDNA, same region (dsDNA)
# DNA 1: B1 DNA
# DNA 2: TATACTAGTTTATCATCATTTTGTTATTTAAGTCTTTTAAATTATGTAAAAACCTGTGATGTTCACAAAAAAGAC
# B3: gudB promoter probe (gudB_EMSA) (dsDNA)
# DNA 1: GGAAATTCAATATGTTTGAAAGCGAATCATTAGGTAAAGAAGAGGCGAAAAGGATC
# DNA 2: GATCCTTTTCGCCTCTTCTTTACCTAATGATTCGCTTTCAAACATATTGAATTTCC
# B4: ccpE promoter probe (ccpE_EMSA) (dsDNA)
# DNA 1: GTTAGTAATGAACTCATGAATGCTTGTGCCATGAAAGTTCAATAATTGAATAATTTATGGGG
# DNA 2: CCCCATAAATTATTCAATTATTGAACTTTCATGGCACAAGCATTCATGAGTTCATTACTAAC
# Tests used:
# MsaB-His [1] = molecular target: T1, MsaB-His; assay: EMSA; 5 mM MgCl2, poly(dI-dC); shift reduced by 100-fold unlabeled probe; conditions: protein: recombinant; tags: 6xHis; label: biotin (5')
# MsaB-His [2] = molecular target: T1, MsaB-His; assay: EMSA; 5 mM MgCl2, poly(dI-dC); conditions: protein: recombinant, tags: 6xHis, blunt
# MsaB-His [3] = molecular target: T1, MsaB-His; assay: EMSA; 5 mM MgCl2, poly(dI-dC); shift reversed by 100-fold unlabeled probe; conditions: protein: recombinant; tags: 6xHis; label: biotin (5'); blunt
binder,measurement,setting,value
B1,binding result,MsaB-His [1],binds
B2,binding result,MsaB-His [2],no binding
B3,binding result,MsaB-His [2]; label: biotin (5'),no binding
B4,binding result,MsaB-His [3],binds
